# Data as given in the DeepSol protein solubility set.
# Assay: soluble on expression in E. coli; label from the status in PepcDB or PDB records
row,Sequence,soluble on expression in E. coli
1,MNFHHLAYWQDKALSLAIENRLFINGEYTAAAENETFETVDPVTQAPLAKIARGKSVDIDRAMSAARGVFERGDWSLSSPAKRKAVLNKLADLMEAHAEELALLETLDTGKPIRHSLRDDIPGAARAIRWYAEAIDKVYGEVATTSSHELAMIVREPVGVIAAIVPWNFPLLLTCWKLGPALAAGNSVILKPSEKSPLSAIRLAGLAKEAGLPDGVLNVVTGFGHEAGQALSRHNDIDAIAFTGSTRTGKQLLKDAGDSNMKRVWLEAGGKSANIVFADCPDLQQAASATAAGIFYNQGQVCIAGTRLLLEESIADEFLALLKQQAQNWQPGHPLDPATTMGTLIDCAHADSVHSFIREGESKGQLLLDGRNAGLAAAIGPTIFVDVDPNASLSREEIFGPVLVVTRFTSEEQALQLANDSQYGLGAAVWTRDLSRAHRMSRRLKAGSVFVNNYNDGDMTVPFGGYKQSGNGRDKSLHALEKFTELKTIWISLEA,soluble
2,MRNGISPIIIDNTNLHAWEMKPYAVMALENNYEVIFREPDTRWKFNVQELARRNIHGVPKEKIQRMKERYEHNVTFHSVLHAEKPSRANRNQGRNSEPSSGSGYWNTYTELPNRRANGLYSNEGYRRGGHHQGY,not soluble
3,MKLEVLPLDQKTFSAYGDVIETQEREFFHINNGLVERYHDLAKVEVLEQDRTLISINRAQPAAMPIVVHELERHPLGTQAFVPMNGEAFVVIVALGDDKPDLSTLRAFISNGRQGVNYHRNVWHHPLFAWQTVTDFLTVDRGGSDNCDVESIPTHELCFALEHHHHHH,soluble
4,GSHMAASATAAAVAAEVISVHSLEQWTMQIEEANTAKKLVVIDFTASWCGPSRIMAPVFADLAKKFPNAVFLKVDVDELKPIAEQFSVEAMPTFLFMKEGDVKDRVVGAIKEELTAKVGLHAAAQ,soluble
5,MKPLSWSEAFGKGAGRIQASTIRELLKLTQRPGILSFAGGLPAPELFPKEEAAEAAARILREKGEVALQYSPTEGYAPLRAFVAEWIGVRPEEVLITTGSQQALDLVGKVFLDEGSPVLLEAPSYMGAIQAFRLQGPRFLTVPAGEEGPDLDALEEVLKRERPRFLYLIPSFQNPTGGLTPLPARKRLLQMVMERGLVVVEDDAYRELYFGEARLPSLFELAREAGYPGVIYLGSFSKVLSPGLRVAFAVAHPEALQKLVQAKQGADLHTPMLNQMLVHELLKEGFSERLERVRRVYREKAQAMLHALDREVPKEVRYTRPKGGMFVWMELPKGLSAEGLFRRALEENVAFVPGGPFFANGGGENTLRLSYATLDREGIAEGVRRLGRALKGLLALV,soluble
6,MAHHHHHHMTNDTEQEQSPSAELAAAAPEPQPSQPQEFYSLRGESHNAVDQEKYGRARTHIAGLGHVSAKDVFKHYRRSWLTPFFGSNEPEPTLQQEGTQHPCQIFSREVHQCLEDHHNSFAFCQTRVAAFQQCLREFSI,not soluble
7,MSETKNDIAWERIFKKYRILEKIKKNGAFEITSGQINEFREARLMTKFDHRKNLPKIFEENNFSILPITRGSYLIAQFKAYHRLEEKETEIIKIPFPTYIESIDYENITSEAAALNCAYVSGILADFIEDEEMVPTVTGRMSSDAFCFYINTYSGSKFKVNVTNAQIEIDGGYEGLGTFSLIEAKNSLSDDFIIRQIYYPYRLWHDKINKKVKPIFMTYSNGIFTFYEYEFQDPEDYNSLTLVKQKKYSIEETEIGLDDIIEIYKRTKIINEPEVPFPQADSFERIINLCELLNESELTRDEITTNYDFDSRQTNYYTDAARYLGLVHKRKEGREVIFSLTEEGEKLFKLKYKPRQLKFVELILSHKVFREVFELCLKNGKMPDKHEVVKIMRYSNLYKIESEKTFYRRAQTIMSWIKWILELTRL,not soluble
8,MRKTKIVCTIGPASESEEMIEKLINAGMNVARLNFSHGSHEEHKGRIDTIRKVAKRLDKIVAILLDTKGPEIRTHNMKDGIIELERGNEVIVSMNEVEGTPEKFSVTYENLINDVQVGSYILLDDGLIELQVKDIDHAKKEVKCDILNSGELKNKKGVNLPGVRVSLPGITEKDAEDIRFGIKENVDFIAASFVRRPSDVLEIREILEEQKANISVFPKIENQEGIDNIAEILEVSDGLMVARGDMGVEIPPEKVPMVQKDLIRQCNKLGKPVITATQMLDSMQRNPRATRAEASDVANAIYDGTDAVMLSGETAAGLYPEEAVKTMRNIAVSAEAAQDYKKLLSDRTKLVETSLVNAIGISVAHTALNLNVKAIVAATESGSTARTISKYRPHSDIIAVTPSEETARQCSIVWGVQPVVKKGRKSTDALLNNAVATAVETGRVSNGDLIIITAGVPTGETGTTNMMKIHLVGDEIANGQGIGRGSVVGTTLVAETVKDLEGKDLSDKVIVTNSIDETFVPYVEKALGLITEENGITSPSAIVGLEKGIPTVVGVEKAVKNISNNMLVTIDAAQGKIFEGYANVL,not soluble
9,EQTQNLYIEGDNLDAMKLLKKSYAGKVDVIYIDPPYNTGKDFIFNDTFALSQEESDEKQGRYNEEGQRLFQNTEANGKFHSDWCSMMYARLMLARTLLNDNGIIFISIDDHELANLIKIGNEVFNASNFIDVFNWAKTETPENLSKKSKQIIEYIVCYQKKKNDMKFQGLKKESVSSNGLLNQPNSVGILTFPANKVVTSIPDGVIKAGMYGTDAYDVELLEDTTVRGGLFTAPVKLKAKFKWSQANLDKEIQKGTTIKIPTLKLSPSYEKLEYDPEVPPNLINYKVGVETNEQAGNHQLQFFDKKVFNFPKPVSLIQYLCEFIDTKNKDCIVMDFFSGSGTTAEAVMRMNMKPRKNKVKYILVQLPEDVTETIKKAKTPSEKEIMQNAIDFLTENHKALNICELSKERIRRAGDTIEAECNQRKSKDLPDIGFRVFRIADSNMKDVYYSAK,not soluble
10,MDVRRLKVNELREELQRRGLDTRGLKAELAERLQAALEAEEPDDERELDADDEPGRPGHINEEVETEGGSELEGTAQPPPPGLQPHAEPGGYSGPDGHYAMDNITRQNQFYDTQVIKQENESGYERRPLEMEQQQAYRPEMKTEMKQGAPTSFLPPEASQLKPDRQQFQSRKRPYEENRGRGYFEHREDRRGRSPQPPAEEDEDDFDDTLVAIDTYNCDLHFKVARDRSSGYPLTIEGFAYLWSGARASYGVRRGRVCFEMKINEEISVKHLPSTEPDPHVVRIGWSLDSCSTQLGEEPFSYGYGGTGKKSTNSRFENYGDKFAENDVIGCFADFECGNDVELSFTKNGKWMGIAFRIQKEALGGQALYPHVLVKNCAVEFNFGQRAEPYCSVLPGFTFIQHLPLSERIRGTVGPKSKAECEILMMVGLPAAGKTTWAIKHAASNPSKKYNILGTNAIMDKMRVMGLRRQRNYAGRWDVLIQQATQCLNRLIQIAARKKRNYILDQTNVYGSAQRRKMRPFEGFQRKAIVICPTDEDLKDRTIKRTDEEGKDVPDHAVLEMKANFTLPDVGDFLDEVLFIELQREEADKLVRQYNEEGRKAGPPPEKRFDNRGGGGFRGRGGGGGFQRYENRGPPGGNRGGFQNRGGGSGGGGNYRGGFNRSGGGGYSQNRWGNNNRDNNNSNNRGSYNRAPQQQPPPQQPPPPQPPPQQPPPPPSYSPARNPPGASTYNKNSNIPGSSANTSTPTVSSYSPPQPSYSQPPYNQGGYSQGYTAPPPPPPPPPAYNYGSYGGYNPAPYTPPPPPTAQTYPQPSYNQYQQYAQQWNQYYQNQGQWPPYYGNYDYGSYSGNTQGGTSTQ,soluble
11,MATPALLPGVDLAAFAAALAARLRDAGIPVSASGQASLVQALQQLVPRTPAALYWGARLTLVSRVDELATFDAVFASLFGVFGSAEPDGANRPPPPIAGPRTPVAGVGHRAKRRSCAAQAQNLPWDTRSLTMASAGQGGPSRTLPDVLPSRIVARADEPFDQFDPDDLRLLGAWLEATMARWPRRRSMRFESSPHGKRIDLRATMNASRSTGWESVLLARIRPRRRPRRVLLLCDVSRSMQPYAAIYLRLMRAAVLRRAGGHPEVFAFSTSLTRLTSVLSHRSAEMALHRANARVTDRYGGTFIGRSVAALLAPPHGNALRGAVVIIASDGWDSDPPDVLVHALTRVRRRAELLVWLNPRAAHPEFQPRAGSMAAALPYCDLFLPAHSLAGLHQLLLALAGAR,soluble
12,MEYFNVGKIVNTQGLQGEMRVLSVTDFVEERFKKGQVLALFDEKNQFVMDIEIASHRKQKNFDIIKFKGMYHINDIEKYKGFTLKVAEDQLSDLKDGEFYYHEIIGLDVYEGEELIGKIKEILQPGANDVWVVERHGKRDLLLPYIPPVVLEVDLSNQRVQVELMEGLDDEDLEHHHHHH,soluble
13,HNNLLSQLGSSHNSITYDIIFGNKDTKNYYAQFAKKHQTHLYSQISSSNQQELKYVDNDPNLKIKEEAAKSTVQNLTVYS,soluble
14,MNQQTVNVIGAGLAGSEAAWQLAKRGIQVKLYEMRPVKQTPAHHTDKFAELVCSNSLRSNTLANAVGVLKEEMRALDSAIIAAADECSVPAGGALAVDRHEFAASVTNRVKNHPNVTVINEEVTEIPEGPTIIATGPLTSESLSAQLKELTGEDYLYFYDAAAPIVEKDSLDMDKVYLKSRYDKGEAAYLNCPMTEEEFDRFHEALTSAETVPLKEFEKEIFFEGCMPIEVMAKRGKKTMLFGPMKPVGLEHPVTGKRPYAVVQLRQDDAAGTLYNIVGFQTHLKWGDQKEVLKLIPGLENVEIVRYGVMHRNTFINSPSLLKPTYQFKNRSDLFFAGQMTGVEGYVESAASGLVAGINAAKLVLGEELVIFPQETAIGSMAHYITTTNQKNFQPMNANFGLLKELPVKIKNKKERNEQYANRAIETIQTISKTILEHHHHHH,soluble
15,MGSDKIHHHHHHMLISSRIVRSSLVNVPLRLSRCFTQAHRACKEEEVNSPLSSAAEQPEQKYTHFGSKTVLKSTKQKLVGDVFSSVANRYDLMNDVMSLGIHRLWKDHFINKLDAGKRPNSTTPLNFIDVAGGSGDIAFGLLDHAESKFGDTESTMDIVDINPDMLKEGEKRAMEQGKYFKDPRVRFLVSNGEKLEEIDSDSKDIYTVSFGIRNFTDIQKGLNTAYRVLKPGGIFYCLEFSKIENPLMDFAYQQWAKVLPVMGSMIANDYDSYQYLVESIERFPDQETFKSMIEKAGFKSAGYESLTFGICAIHWGIKV,not soluble
16,MYHDRRRTGFRQYETYMKQKQSADWQLDELLEELEALETQLNSSNGGDQLLLGVSGIPASSSRENVKSISTLPPPPPALSYHQTPQQPQLLHHHNNHLGYQNGIHQITSINSAASSCSSPDGDSAFGDSSSTESSNNRCRNSAFSSNDSCRDSLNTPSPTQVSPRNGELNAEEAKAQKIRQALEKMKEAKVTKIFVKFFVEDGEALQLLIDERWTVADTLKQLAEKNHIALMEDHCIVEEYPELYIKRVYEDHEKVVENIQMWVQDSPNKLYFMRRPDKYAFISRPELYLLTPKTSDHMEIPSGDQWTIDVKQKFVSEYFHREPVVPPEMEGFLYLKSDGRKSWKKHYFVLRPSGLYYAPKSKKPTTKDLTCLMNLHSNQVYTGIGWEKKYKSPTPWCISIKLTALQMKRSQFIKYICAEDEMTFKKWLVALRIAKNGAELLENYERACQIRRETLGPASSMSAASSSTAISEVPHSLSHHQRTPSVASSIQLSSHMMNNPTHPLSVNVRNQSPASFSVNSCQQSHPSRTSAKLEIQYDEQPTGTIKRAPLDVLRRVSRASTSSPTIPQEESDSDEEFPAPPPVASVMRMPPPVTPPKPCTPLTSKKAPPPPPKRSDTTKLQSASPMAPAKNDLEAALARRREKMATMECMGHHHHHHENLYFMGHHHHHHENLYFQSH,soluble
17,MFTCKVNEHITIRLLEPKDAERLAELIIQNQQRLGKWLFFAENPSSADTYRETIIPDWRRQYADLNGIEAGLLYDGSLCGMISLHNLDQVNRKAEIGYWIAKEFEGKGIITAACRKLITYAFEELELNRVAICAAVGNEKSRAVPERIGFLEEGKARDGLYVNGMHHDLVYYSLLKREWEGEKLEHHHHHH,not soluble
18,MKISVITINYNNGEQLEATIQSVVSNVTVLRELLGEKAEYIVIDGGSVDCSVSVLQKYSEYISYWISEKDKGIYHAMNKGISVAQGEYCFFLNSGDTFYEDDTLKKALLFLKEDFVCGNAVLKYAGGINEWSAPEIVNTLFFMQRFSVCHQSLFIRTELLKSHPYNETLMIVADYEQMFYEIAVNHRSYKKIDLTICYYGCDGVSSDHEKADAEKRSVINEFRYLGYIEPDELWNVVSKLKIGTRKYRLLLSLAKCLTSSPKYWVRLEHHHHHH,soluble
